# B1: MAb16614 (antibody, V domains shown)
# VH: QVQLVESGGGVVQPGGSLRLSCAASGFTFSTYDIHWVRQAPGKGLEWVAVISFDGSNRNYGDSVKGRFTISRDNSDNTLFLEMNNLRFEDTAVYYCAKEGYGVDFQHWGQGTLVTVSS
# VL: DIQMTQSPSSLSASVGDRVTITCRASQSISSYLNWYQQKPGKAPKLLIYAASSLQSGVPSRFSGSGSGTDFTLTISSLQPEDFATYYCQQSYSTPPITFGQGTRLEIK
# notes: hIgG4 isotype control used
# B2: MAb16683 (antibody, V domains shown)
# VH: QVQLVESGGGLVKPGGSLRLSCAASGFTFSDYYMTWIRQTPGKGLDWVSYISSSGTNKYNADSVKGRFTISRDNAKNSLYLQMNSLRAEDTAVYYCVRDPPWGMDVWGQGTTVTVSS
# VL: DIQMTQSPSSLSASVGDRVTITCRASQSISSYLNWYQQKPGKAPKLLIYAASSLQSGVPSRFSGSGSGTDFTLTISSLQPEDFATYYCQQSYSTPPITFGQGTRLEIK
# notes: hIgG4 isotype control used
# What was measured:
# [1] = molecular target: T1, human GP130 delta D1-D3 with C-terminal myc-myc hexahistidine tag (human, UniProt P40189 329-619); assay: Luminex, antigen captured on anti-myc beads
# T1 construct: used as CHO supernatant; also called human GP130 delta D1-D3-MMH; GP130 Delta D1-D3 extracellular domain
# T1 sequence (P40189 other isoform, or with tags, fused parts or gaps mutant limits assumed): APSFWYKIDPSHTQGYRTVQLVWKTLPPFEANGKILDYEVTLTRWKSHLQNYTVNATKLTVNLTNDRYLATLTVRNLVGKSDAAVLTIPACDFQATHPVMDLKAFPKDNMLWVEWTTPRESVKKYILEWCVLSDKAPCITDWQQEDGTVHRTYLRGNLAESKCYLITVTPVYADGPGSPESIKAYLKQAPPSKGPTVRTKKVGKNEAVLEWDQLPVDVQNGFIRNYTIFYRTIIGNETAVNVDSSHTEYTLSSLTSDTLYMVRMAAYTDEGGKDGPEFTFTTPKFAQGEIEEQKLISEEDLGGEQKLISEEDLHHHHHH
# Method: (§1) Aliquots of microspheres with immobilized anti-myc monoclonal antibodies, prepared as described above, were added individually to 1 mL of the each of these protein supernatants and to 500 uL of purified GP130 protein. The microspheres were gently mixed, incubated for two hours at 25° C., washed twice with 1 mL of DBPS, centrifuged to remove the supernatant and finally resuspended in 1 mL of DPBS buffer. Forty eight μL of anti-myc IgG coupled microspheres from individual reactions with full length human GP130 and with each of the human GP130 domain proteins were withdrawn and mixed together in 3.6 mL of PBS+20 mg/mL BSA+0.05% sodium azide (blocking buffer).
# (§2) From this mixed pool, 75 μL of microspheres were plated per well on a 96 well filter plate (Millipore, Cat. No: MSBVN1250) and mixed with 25 μL of individual anti-human GP130 monoclonal antibodies (0.5 or 5 μg/mL), incubated for two hours at 25° C. and then washed twice with 200 μL of DPBS with 0.05% Tween 20 (washing buffer). To detect and quantify the amounts of bound anti-GP130 antibody levels to individual microspheres, either 100 μL of 2.5 μg/mL R-Phycoerythrin conjugated goat F(ab′)2 anti-human kappa (Southern Biotech, Cat #2063-09) in blocking buffer, was added and incubated for 30 minutes at 25° C. After 30 minutes, the samples were washed twice with 200 μL of washing buffer and resuspended in 150 μL of wash buffer. The Median Fluorescence intensity (MFI) of the microspheres was measured in a Luminex Analyzer.
# [2] = molecular target: T2, human GP130 full length extracellular domain with C-terminal myc-myc-hexahistidine tag (human, UniProt P40189 23-619); assay: Luminex, antigen captured on anti-myc beads
# T2 construct: Monomeric; also called human GP130-MMH; hGP130-mmH
# Method: as §1, §2
# [3] = molecular target: T3, human GP130 delta D1 with C-terminal myc-myc hexahistidine tag (human, UniProt P40189 124-619); assay: Luminex, antigen captured on anti-myc beads
# T3 construct: used as CHO supernatant; also called human GP130 delta D1-MMH; GP130 Delta D1 extracellular domain
# T3 sequence (P40189 other isoform, or with tags, fused parts or gaps mutant limits assumed): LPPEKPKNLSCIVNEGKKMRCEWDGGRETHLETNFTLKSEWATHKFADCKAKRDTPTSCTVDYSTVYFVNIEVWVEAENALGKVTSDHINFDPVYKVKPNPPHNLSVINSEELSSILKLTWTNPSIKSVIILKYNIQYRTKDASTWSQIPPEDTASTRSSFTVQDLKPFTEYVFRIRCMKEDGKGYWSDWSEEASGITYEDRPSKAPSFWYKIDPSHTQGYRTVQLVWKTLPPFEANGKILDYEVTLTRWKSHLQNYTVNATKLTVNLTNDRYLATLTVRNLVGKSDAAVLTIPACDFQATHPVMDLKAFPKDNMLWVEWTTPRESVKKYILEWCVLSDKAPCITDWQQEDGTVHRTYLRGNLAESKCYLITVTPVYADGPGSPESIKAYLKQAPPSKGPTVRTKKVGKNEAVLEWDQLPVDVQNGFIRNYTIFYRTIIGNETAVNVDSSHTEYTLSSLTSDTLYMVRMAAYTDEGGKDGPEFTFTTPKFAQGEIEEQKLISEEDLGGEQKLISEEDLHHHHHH
# Method: as §1, §2
# [4] = molecular target: T4, human gp130 extracellular domain (E23-E619) with C-terminal mouse IgG2a Fc (human); assay: blocking ELISA, 2.5 nM hGP130-mFc on plate-bound CNTFR/CNTF complex
# T4 construct: dimeric; also called hGP130-mFc; human GP130-mFc
# T4 chain: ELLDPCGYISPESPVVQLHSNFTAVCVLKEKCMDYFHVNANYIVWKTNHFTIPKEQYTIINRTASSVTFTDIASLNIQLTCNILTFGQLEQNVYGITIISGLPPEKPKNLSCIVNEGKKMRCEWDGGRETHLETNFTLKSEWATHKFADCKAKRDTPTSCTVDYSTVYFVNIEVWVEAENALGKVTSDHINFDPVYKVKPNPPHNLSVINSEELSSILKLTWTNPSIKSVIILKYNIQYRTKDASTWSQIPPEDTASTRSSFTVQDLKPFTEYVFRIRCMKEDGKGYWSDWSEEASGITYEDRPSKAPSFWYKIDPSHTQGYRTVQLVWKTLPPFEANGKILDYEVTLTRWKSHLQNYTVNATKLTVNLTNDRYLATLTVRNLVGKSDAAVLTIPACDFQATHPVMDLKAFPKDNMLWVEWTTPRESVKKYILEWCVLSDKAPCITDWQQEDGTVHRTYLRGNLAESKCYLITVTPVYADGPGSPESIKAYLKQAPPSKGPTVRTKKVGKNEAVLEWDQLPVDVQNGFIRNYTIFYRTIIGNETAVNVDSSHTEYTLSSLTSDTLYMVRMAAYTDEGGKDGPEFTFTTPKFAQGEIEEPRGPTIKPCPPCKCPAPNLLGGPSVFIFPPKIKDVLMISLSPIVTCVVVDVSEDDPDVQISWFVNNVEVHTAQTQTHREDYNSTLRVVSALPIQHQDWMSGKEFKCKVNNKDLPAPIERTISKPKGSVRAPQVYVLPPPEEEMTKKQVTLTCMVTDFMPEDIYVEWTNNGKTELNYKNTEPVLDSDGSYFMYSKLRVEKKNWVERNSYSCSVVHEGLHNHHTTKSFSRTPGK
# Method: The experiment was carried out using the following procedure. Human CNTFRα was coated at a concentration of […] in HBSS on a 96-well microtiter plate overnight at 4° C. […] Human CNTF at a concentration of 1 μg/ml in HBSS was added to the plate bound CNTFRα for 1 hour at room temperature. In separate dilution plates, a constant amount of 2.5 nM of human GP130-mFc protein was titrated with antibodies ranging from 3.4 pM to 200 nM in serial dilution and with no antibody present. These solutions were incubated for 1 hour at room temperature (RT) and subsequently transferred to the microtiter plates with CNTFRα/CNTF complex without washing. The plates were incubated for 2 hours at RT, washed with PBST buffer, and plate-bound hGP130-mFc was detected with an anti-mFc polyclonal antibody conjugated with horseradish peroxidase (HRP) (Jackson ImmunoResearch Inc). Samples were developed with a TMB solution (BD Biosciences, substrate A and B mixed at 1:1 ratio as per manufacturer's instructions) to produce a colorimetric reaction and then neutralized with 1M sulfuric acid before measuring absorbance at 450 nm on a Victor X5 plate reader.
# Data analysis was performed using a sigmoidal dose-response model within Prism™ software (GraphPad). […] Percent blockade at maximum concentration tested was calculated as an indicator of the ability of the antibodies to block binding of GP130 to CNTFRα/CNTF on the plate as determined from the dose curve. The ratio of the reduction in signal observed in the presence of the highest tested concentration of 200 nM antibody, relative to the difference between the signal with 2.5 nM GP130 with no antibody (0% blocking) and the background signal from HRP-conjugated secondary antibody alone (100% blocking), was subtracted from 100% blocking.
Binder,Luminex MFI signal [1] [MFI],Luminex MFI signal [2] [MFI],Luminex MFI signal [3] [MFI],Max Blocking of Antibody at 200 nM (%) [4] [%]
B1,56,18700,2900,-14.8
B2,20900,15200,12000,-22.8

# From patent US20240158497A1 (published 2024)
